Bounds are passed on as bounds.

The chains are these.
B1: CIgG4B1A1(RS) (Fc fusion)
chain 1: GPPCPPCPAPEFLGGPSVFLFPPKPKDTLMISRTPEVTCVVVDVSQEDPEVQFNWYVDGVEVHNAKTKPREEQFNSTYRVVSVLTVLHQDWLNGKEYKCKVSNKGLPSSIEKTISKAKGQPREPQVYTLPPCQEEMTKNQVSLWCLVKGFYPSDIAVEWESNGQPENNYKTTPPVLDSDGSFFLYSRLTVDKSRWQEGNVFSCSVMHEALHNHYTQKSLSLSLGKRSQVQLQESGGGLVQTGGSLRLSCAVHGRTFSNTGMGWFRQAPGNERQFVAIISPSGTSTYYADSVKGRFTISRDPAKNTVYLQMNSLKMDDTAVYYCAASYGSNWSTLRHQRRNEYDAWGQGTQVAVS
chain 2: GPPCPPCPAPEFLGGPSVFLFPPKPKDTLMISRTPEVTCVVVDVSQEDPEVQFNWYVDGVEVHNAKTKPREEQFNSTYRVVSVLTVLHQDWLNGKEYKCKVSNKGLPSSIEKTISKAKGQPREPQVCTLPPSQEEMTKNQVSLSCAVKGFYPSDIAVEWESNGQPENNYKTTPPVLDSDGSFFLVSRLTVDKSRWQEGNVFSCSVMHEALHNHYTQKSLSLSLGKRSEVQLLESGGGLVQPGGSLRLSCAASGFTFGNYDMAWVRQAPGKRPEWVSSIDTGGDITHYADSVKGRFTISRDNAKNTLYLQMNSLRPEDTAVYWCATDEEYALGPNEFDYYGQGTLVTVSS
B2: CIgG4B1A1(G4S)2 (Fc fusion)
chain 1: GPPCPPCPAPEFLGGPSVFLFPPKPKDTLMISRTPEVTCVVVDVSQEDPEVQFNWYVDGVEVHNAKTKPREEQFNSTYRVVSVLTVLHQDWLNGKEYKCKVSNKGLPSSIEKTISKAKGQPREPQVYTLPPCQEEMTKNQVSLWCLVKGFYPSDIAVEWESNGQPENNYKTTPPVLDSDGSFFLYSRLTVDKSRWQEGNVFSCSVMHEALHNHYTQKSLSLSLGKGGGGSGGGGSQVQLQESGGGLVQTGGSLRLSCAVHGRTFSNTGMGWFRQAPGNERQFVAIISPSGTSTYYADSVKGRFTISRDPAKNTVYLQMNSLKMDDTAVYYCAASYGSNWSTLRHQRRNEYDAWGQGTQVAVS
chain 2: GPPCPPCPAPEFLGGPSVFLFPPKPKDTLMISRTPEVTCVVVDVSQEDPEVQFNWYVDGVEVHNAKTKPREEQFNSTYRVVSVLTVLHQDWLNGKEYKCKVSNKGLPSSIEKTISKAKGQPREPQVCTLPPSQEEMTKNQVSLSCAVKGFYPSDIAVEWESNGQPENNYKTTPPVLDSDGSFFLVSRLTVDKSRWQEGNVFSCSVMHEALHNHYTQKSLSLSLGKGGGGSGGGGSEVQLLESGGGLVQPGGSLRLSCAASGFTFGNYDMAWVRQAPGKRPEWVSSIDTGGDITHYADSVKGRFTISRDNAKNTLYLQMNSLRPEDTAVYWCATDEEYALGPNEFDYYGQGTLVTVSS
B3: CIgG4B1A1(G4S)1 (Fc fusion)
chain 1: GPPCPPCPAPEFLGGPSVFLFPPKPKDTLMISRTPEVTCVVVDVSQEDPEVQFNWYVDGVEVHNAKTKPREEQFNSTYRVVSVLTVLHQDWLNGKEYKCKVSNKGLPSSIEKTISKAKGQPREPQVYTLPPCQEEMTKNQVSLWCLVKGFYPSDIAVEWESNGQPENNYKTTPPVLDSDGSFFLYSRLTVDKSRWQEGNVFSCSVMHEALHNHYTQKSLSLSLGKGGGGSQVQLQESGGGLVQTGGSLRLSCAVHGRTFSNTGMGWFRQAPGNERQFVAIISPSGTSTYYADSVKGRFTISRDPAKNTVYLQMNSLKMDDTAVYYCAASYGSNWSTLRHQRRNEYDAWGQGTQVAVS
chain 2: GPPCPPCPAPEFLGGPSVFLFPPKPKDTLMISRTPEVTCVVVDVSQEDPEVQFNWYVDGVEVHNAKTKPREEQFNSTYRVVSVLTVLHQDWLNGKEYKCKVSNKGLPSSIEKTISKAKGQPREPQVCTLPPSQEEMTKNQVSLSCAVKGFYPSDIAVEWESNGQPENNYKTTPPVLDSDGSFFLVSRLTVDKSRWQEGNVFSCSVMHEALHNHYTQKSLSLSLGKGGGGSEVQLLESGGGLVQPGGSLRLSCAASGFTFGNYDMAWVRQAPGKRPEWVSSIDTGGDITHYADSVKGRFTISRDNAKNTLYLQMNSLRPEDTAVYWCATDEEYALGPNEFDYYGQGTLVTVSS
B4: NIgG4A1A1(G4S)1 (Fc fusion)
chain 1: EVQLLESGGGLVQPGGSLRLSCAASGFTFGNYDMAWVRQAPGKRPEWVSSIDTGGDITHYADSVKGRFTISRDNAKNTLYLQMNSLRPEDTAVYWCATDEEYALGPNEFDYYGQGTLVTVSSGGGGSGPPCPPCPAPEFLGGPSVFLFPPKPKDTLMISRTPEVTCVVVDVSQEDPEVQFNWYVDGVEVHNAKTKPREEQFNSTYRVVSVLTVLHQDWLNGKEYKCKVSNKGLPSSIEKTISKAKGQPREPQVYTLPPCQEEMTKNQVSLWCLVKGFYPSDIAVEWESNGQPENNYKTTPPVLDSDGSFFLYSRLTVDKSRWQEGNVFSCSVMHEALHNHYTQKSLSLSLGK
chain 2: EVQLLESGGGLVQPGGSLRLSCAASGFTFGNYDMAWVRQAPGKRPEWVSSIDTGGDITHYADSVKGRFTISRDNAKNTLYLQMNSLRPEDTAVYWCATDEEYALGPNEFDYYGQGTLVTVSSGGGGSGPPCPPCPAPEFLGGPSVFLFPPKPKDTLMISRTPEVTCVVVDVSQEDPEVQFNWYVDGVEVHNAKTKPREEQFNSTYRVVSVLTVLHQDWLNGKEYKCKVSNKGLPSSIEKTISKAKGQPREPQVCTLPPSQEEMTKNQVSLSCAVKGFYPSDIAVEWESNGQPENNYKTTPPVLDSDGSFFLVSRLTVDKSRWQEGNVFSCSVMHEALHNHYTQKSLSLSLGK
B5: NIgG4A1A1(RS) (Fc fusion)
chain 1: EVQLLESGGGLVQPGGSLRLSCAASGFTFGNYDMAWVRQAPGKRPEWVSSIDTGGDITHYADSVKGRFTISRDNAKNTLYLQMNSLRPEDTAVYWCATDEEYALGPNEFDYYGQGTLVTVSSRSGPPCPPCPAPEFLGGPSVFLFPPKPKDTLMISRTPEVTCVVVDVSQEDPEVQFNWYVDGVEVHNAKTKPREEQFNSTYRVVSVLTVLHQDWLNGKEYKCKVSNKGLPSSIEKTISKAKGQPREPQVYTLPPCQEEMTKNQVSLWCLVKGFYPSDIAVEWESNGQPENNYKTTPPVLDSDGSFFLYSRLTVDKSRWQEGNVFSCSVMHEALHNHYTQKSLSLSLGK
chain 2: EVQLLESGGGLVQPGGSLRLSCAASGFTFGNYDMAWVRQAPGKRPEWVSSIDTGGDITHYADSVKGRFTISRDNAKNTLYLQMNSLRPEDTAVYWCATDEEYALGPNEFDYYGQGTLVTVSSRSGPPCPPCPAPEFLGGPSVFLFPPKPKDTLMISRTPEVTCVVVDVSQEDPEVQFNWYVDGVEVHNAKTKPREEQFNSTYRVVSVLTVLHQDWLNGKEYKCKVSNKGLPSSIEKTISKAKGQPREPQVCTLPPSQEEMTKNQVSLSCAVKGFYPSDIAVEWESNGQPENNYKTTPPVLDSDGSFFLVSRLTVDKSRWQEGNVFSCSVMHEALHNHYTQKSLSLSLGK
B6: CIgG4B1A1(G4S3) (Fc fusion)
chain 1: GPPCPPCPAPEFLGGPSVFLFPPKPKDTLMISRTPEVTCVVVDVSQEDPEVQFNWYVDGVEVHNAKTKPREEQFNSTYRVVSVLTVLHQDWLNGKEYKCKVSNKGLPSSIEKTISKAKGQPREPQVYTLPPCQEEMTKNQVSLWCLVKGFYPSDIAVEWESNGQPENNYKTTPPVLDSDGSFFLYSRLTVDKSRWQEGNVFSCSVMHEALHNHYTQKSLSLSLGKGGGGSGGGGSGGGGSQVQLQESGGGLVQTGGSLRLSCAVHGRTFSNTGMGWFRQAPGNERQFVAIISPSGTSTYYADSVKGRFTISRDPAKNTVYLQMNSLKMDDTAVYYCAASYGSNWSTLRHQRRNEYDAWGQGTQVAVS
chain 2: GPPCPPCPAPEFLGGPSVFLFPPKPKDTLMISRTPEVTCVVVDVSQEDPEVQFNWYVDGVEVHNAKTKPREEQFNSTYRVVSVLTVLHQDWLNGKEYKCKVSNKGLPSSIEKTISKAKGQPREPQVCTLPPSQEEMTKNQVSLSCAVKGFYPSDIAVEWESNGQPENNYKTTPPVLDSDGSFFLVSRLTVDKSRWQEGNVFSCSVMHEALHNHYTQKSLSLSLGKGGGGSGGGGSGGGGSEVQLLESGGGLVQPGGSLRLSCAASGFTFGNYDMAWVRQAPGKRPEWVSSIDTGGDITHYADSVKGRFTISRDNAKNTLYLQMNSLRPEDTAVYWCATDEEYALGPNEFDYYGQGTLVTVSS

In the test the target is T1, recombinant human IgE (human, UniProt P01854-1 1-428).
T1 construct: made in-house (ALK); preloaded on immobilised FcεRIα in the displacement ELISA
T1 sequence (P01854 other isoform, or with tags, fused parts or gaps): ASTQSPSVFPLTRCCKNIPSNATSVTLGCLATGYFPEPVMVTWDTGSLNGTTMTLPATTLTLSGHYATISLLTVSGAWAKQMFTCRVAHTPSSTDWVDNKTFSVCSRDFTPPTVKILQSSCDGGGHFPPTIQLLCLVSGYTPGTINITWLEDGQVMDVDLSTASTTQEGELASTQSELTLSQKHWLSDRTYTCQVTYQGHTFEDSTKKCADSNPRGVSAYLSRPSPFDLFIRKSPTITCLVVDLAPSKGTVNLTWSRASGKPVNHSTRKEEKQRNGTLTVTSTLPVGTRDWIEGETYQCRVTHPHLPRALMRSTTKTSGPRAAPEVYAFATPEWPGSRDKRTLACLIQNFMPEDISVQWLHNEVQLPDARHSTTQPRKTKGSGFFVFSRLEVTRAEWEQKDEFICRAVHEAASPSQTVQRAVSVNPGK
The experiment in a line: IgE-FcεRIα displacement ELISA. The procedure: The displacement effect was tested using IgE-FcεRIα displacement ELISA assay. Maxisorp® microtiter plates (Thermo Scientific Nunc, Roskilde, Denmark) were coated with 100 μl streptavidin, 5 μg/ml (Thermo Scientific, Waltham, MA) for 18 h at 4° C. followed by wash with 300 μl washing buffer (PBS containing 0.05% Tween 20) using an AquaMax® 2000 plate washer (Molecular Devices, San Jose, CA). Remaining binding sites were blocked with 250 μl blocking buffer (PBS containing 2% BSA) for 2 h and washed with 300 μl washing buffer. Subsequently, the bound streptavidin was loaded with 100 μl (0.1 μg/ml) recombinant human FcεRIα (site specific biotinylated via avi-tag, made in-house, ALK, Hørsholm, Denmark) for 1 h and plates washed twice with 300 μl washing buffer. The bound receptor was then loaded with 100 μl recombinant human IgE (made in-house, ALK, Hørsholm, Denmark), 13 ng/ml (pre-titrated to reach an OD₄₅₀ signal in the range of 1.5-2.5 in the absence of displacement components) for 1h followed by three washes of 300 μl washing buffer.
displacement step: 100 μl sdAbs diluted in concentration series (pM-μM range) or blocking buffer only as a non-displacement negative control, were added to the ELISA wells and incubated for 1 h. Any IgE, displaced from the receptor by a sdAb was washed away by three washes of 300 μl washing buffer.
The ability of the various sdAbs to displace IgE from the receptor (FcεRIα) was evaluated by use of the ELISA based IgE-FcεRIα displacement assay. The percent displacement effect was calculated as the relative reduction in signal compared to the control with no sdAb added. The EC₅₀ values and the maximal effects were determined (table 15).
(In general: An ELISA detects its analyte on a solid surface through an enzyme-linked reagent.)
The term EC50 denotes the concentration giving half of the maximal effect. For the molecule B1, the EC50 was 9.8 nM and the Max effect is > 95%.
The matching figures for B2: 4 nM and > 95%.
The matching figures for B3: 3.1 nM and > 95%.
On to B4, for which the EC50 is 260 nM.
Still for that read-out and setting: with B5 the figure was 490 nM.
Regarding B6, the EC50 was determined as 3.5 nM and the Max effect was > 95%.

The values above are taken from patent US20250171562A1 (ALK ABELL, published 2025).
